Measurements from paper PMC5438308, “Structural and dynamic insights into the role of conformational switching in the nuclease activity of the Xanthomonas albilineans Cas2 in CRISPR-mediated adaptive immunity” (Structural Dynamics, 2017).

Molecular target: the molecule itself
Assay: SEC

B1: Xanthomonas albilineans Cas2 (enzyme)
chain: MMVLVSYDVSTSSPGGDKRLRKVAKACRDLGQRVQFSVFEIEVDPAQWTALRQRLCDLIDPDIDSLRFYHLGAKWEARVEHVGAKPSLDLKGPLIF
notes: Cas2 of Xanthomonas albilineans, subtype I-C CRISPR-Cas system; synthetic cas2 gene in pET21a; residue numbers in the structure run to 96 (C-terminal tails 87-96 / 86-96 not modelled); also called XaCas2; WT XaCas2; not shown: His6, C-terminal, kept
**Q.** How did the “stoichiometry N” value turn out when B1 was run?
**A.** 2
